Assay results published in US20060003407A1 (Biogen, published 2006).
Values belong to the binder of their own block, whether it stands above or below them.

Experiments:
[1] = molecular target: T1, TACI on TACI+ expressing IM9 cell line (UniProt O14836 1-293, limits assumed); assay: FACS on TACI+IM9 cells, 1 to 50 ng/mL ligand
T1 construct: whole, on cells; also called TACI+IM9 cells; TACI+ in IM9 cells
T1 sequence (looked up): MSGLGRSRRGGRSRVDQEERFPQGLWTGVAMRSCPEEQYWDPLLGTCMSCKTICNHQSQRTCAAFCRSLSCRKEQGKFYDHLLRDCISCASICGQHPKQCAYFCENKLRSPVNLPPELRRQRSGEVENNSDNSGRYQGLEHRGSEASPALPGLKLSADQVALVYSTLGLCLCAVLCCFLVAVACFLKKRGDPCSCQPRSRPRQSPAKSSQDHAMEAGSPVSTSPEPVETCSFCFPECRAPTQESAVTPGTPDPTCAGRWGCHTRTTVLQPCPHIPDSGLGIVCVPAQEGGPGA

[2] = molecular target: T1, TACI on TACI+ expressing IM9 cell line; assay: FACS on TACI+IM9 cells, 1 to 50 ng/mL ligand; the filing calls a major component of this binding nonspecific

binding result [1]: binds
B1: FLAG-tagged truncated human APRIL ligand polypeptide (amino acids 115-250 of SEQ ID NO: 6) (ligand, not shown: small tags and cut ends)
chain: HSVLHLVPINATSKDDSDVTEVMWQPALRRGRGLQAQGYGVRIQDAGVYLLYSQVLFQDVTFTMGQVVSREGQGRQETLFRCIRSMPSHPDRAYNSCYSAGVFHLHQGDILSVIIPRARAKLNLSPHGTFLGFVKL
notes: Expressed in 293T cells; Tested both purified (anti-FLAG M1, SP Sepharose, Superdex 200) and unpurified in cell medium (SN); also called FLAGhuAPRIL purified; FLAGhuAPRIL SN

binding result [2]: binds
B2: truncated human APRIL ligand polypeptide encoded by amino acid residues 105-250 of SEQ ID NO: 6 (ligand, not shown: small tags and cut ends)
chain: AVLTQKQKKQHSVLHLVPINATSKDDSDVTEVMWQPALRRGRGLQAQGYGVRIQDAGVYLLYSQVLFQDVTFTMGQVVSREGQGRQETLFRCIRSMPSHPDRAYNSCYSAGVFHLHQGDILSVIIPRARAKLNLSPHGTFLGFVKL
notes: also called longer truncate of human APRIL ligand polypeptide
